From US11311610B2, “Immune-modulating agents and uses therefor” (UNIVERSITY OF TECHNOLOGY SYDNEY, priority 2010, dated 2022) come the findings set out here.

The test system of data set [1] is immune cell invasion of pancreatic islets. Kind of data set: Insulitis in NOD mouse model of type 1 diabetes. It counts as in vivo. The following applies: NOD mice, 6 injections every second day from 5 weeks, sacrificed at 10 weeks. From the text:
Non-obese diabetic (NOD) mice (model of Type 1 diabetes) were given 6 injections (on every second day) of proteinaceous compound beginning at 5 weeks of age and animals were sacrificed at 10 weeks of age (i.e. when insulitis develops). Subsequently, formalin-fixed, paraffin-embedded pancreata was stained with haematoxylin and eosin to assess islet inflammation (i.e., insulitis).
Islet insulitis was scored as 0 (healthy islet), 1 (peri-insulitis up to 25% of islet occupied by leukocytes), 2 (leukocytic infiltration from 25% up to 50% of islet mass), 3 (leukocytic infiltration from 50% up to 75% of islet mass) or 4 (less than 25% of islet mass present). Accordingly, the greater the percentage of islets with higher insulitis scores the worse the prognosis for diabetes development would be for that animal.

Data set [2] has as its system peritoneal macrophages. Kind of data set: Alternative activation of peritoneal macrophages in mice (RT-PCR). It is filed as in vivo. Particulars: Balb/c mice, three i.p. injections of 5 μg. The protocol:
FIG. 7 is a photographic representation showing the results of a RT-PCR analysis of macrophage RNA isolated from Balb/c mice given three i.p. injections of 5 μg native FhHDM-1 (NFh6) or recombinant FhHDM-1 (FH6).
Balb/c mice were given three intraperitoneal (i.p.) injections of 5 μg native (NFh6) or recombinant FhHDM-1.

For data set [3], the system named is human monocytes. The data set is described as follows: Activation marker expression on stimulated human monocytes (flow cytometry). It is filed as cell-based. Particulars: human monocytes stimulated 40 h with 10 μg/mL.
Data set [4] has as its system primary human macrophages. The data set is described as follows: Confocal microscopy of macrophages incubated with FhHDM-1. It counts as cell-based. Particulars: 10 μg/mL for 2 h. Here is the method:
FIG. 10 is a photographic representation showing representative immunofluorescent images obtained by confocal microscopy at an original magnification 100× of primary human macrophages (A) and (C) incubated with recombinant FhHDM-1 (10 μg/mL for 2 h). Images (B) and (D) were experimental controls incubated with media only. Cells were stained with mouse anti-His MAb (1/2000), goat-anti-mouse Alexa-488-conjugated secondary antibody (1/1000) (green staining) and DiI plasma membrane stain (red staining). DAPI was used for identification of the cell nucleus (blue staining).

Data set [5] concerns primary human macrophages. Kind of data set: Proteomics analysis of treated macrophages. It counts as cell-based. From the text:
FIG. 11 is a diagrammatic representation showing a Venn diagram of soluble proteins identified in primary human macrophages.

The subject of data set [6] is NOD mice. The data set is described as follows: Diabetes development in NOD mice (blood glucose). It counts as in vivo. The protocol: FIG. 13 is a graphical representation showing that FhHDM-1 protects NOD mice from developing diabetes. FhHDM-1 was given to female NOD mice aged 4 weeks. 10 μg of FhHDM-1 was delivered i.p. in PBS on alternate days for a total of 6 doses. Blood glucose readings were taken weekly and mice with two consecutive readings >14 mmol/L were deemed diabetic.
Female NOD mice (n=10) were given recombinant HDM (10 μg in 100 μL sterile PBS) by intraperitoneal (i.p.) injection on alternate days beginning at 4 weeks of age for a total of 6 injections. Control mice were given 100 μL of sterile PBS on the same days. Blood glucose levels were measured once a week, from the age of 13 weeks, using Accu-check Advantage blood glucose strips (Roche). Animals were sacrificed when they became overtly diabetic; as defined by two random blood glucose concentrations above 12 mM. Statistical analysis of the times the animal was sacrificed was performed using survival analysis.

For data set [7], the system named is peritoneal macrophages. The data set is described as follows: IL-10 secretion by peritoneal macrophages of treated NOD mice. It is filed as in vivo. The following applies: 10 μg i.p. x6, 24 h after last injection, compared to untreated mice. The protocol: FhHDM-1 was given to female NOD mice aged 4 weeks. 10 μg of FhHDM-1 was delivered i.p. in PBS on alternate days for a total of 6 doses. 24 h after the last injection, macrophages were isolated from the peritoneal lavage and cultured in RPMI supplemented with FCS for 12 h. IL-10 secreted into the media was measured by ELISA.
Female NOD mice (n=6) were given recombinant HDM (10 μg in 100 μL sterile PBS) by intraperitoneal (i.p.) injection on alternate days beginning at 4 weeks of age for a total of 6 injections. Control mice were given 100 μL of sterile PBS on the same days. 24 h after the last injection mice were sacrificed and peritoneal cells harvested by lavage. Macrophages were isolated from peritoneal lavages based upon their adherent properties, and cultured overnight at 37° C. in RPMI supplemented with FCS. The quantity of IL-10 secreted into the media was measured by ELISA.

In data set [8] the test system is inflammatory response to bacterial lipopolysaccharide. Kind of data set: Inflammatory response to LPS in vivo after HDM pre-treatment. The following applies: BALB/c mice, 1 μg i.p. 2 h before 1 μg LPS, 4 h later. The protocol:
Female BALB/c mice were given 1 μg of FhHDM-1 i.p. and 2 h later given 1 μg of E. coli LPS i.p. After another 4 h, mice were sacrificed and serum and peritoneal macrophages assessed for the presence of inflammatory cytokines.
Female BALB/c mice (n=5) were given a single intraperitoneal injection of 1 μg of recombinant HDM two hours prior to an intraperitoneal injection of 1 μg of E. coli lipopolysaccharide. Four hours later, mice were sacrificed and blood and peritoneal cells were harvested. Peritoneal macrophages were isolated from lavage fluid based upon their adherent properties, and cultured overnight at 37° C. in RPMI supplemented with FCS. The quantities of inflammatory cytokines in both sera and culture media from macrophages were measured by ELISA.

For data set [9], the system named is RAW macrophages. Kind of data set: ATP induced macrophage cell death (LDH release). It is filed as cell-based, murine. Particulars: 20 μg/mL pre-treatment 1 h, then ATP 5 mM 2 h. Here is the method:
FIG. 16 is a graphical representation showing that FhHDM-1 P3 prevents ATP induced cell death in RAW macrophages. RAW macrophages were pretreated with either FhHDM-1 (20 μg/mL) or FhHDM-1 p3 (20 μg/mL) for 1 h, then washed and cultured in the presence of ATP (5 mM) for 2 h. Cell death (% cytotoxicity) was quantified according to the amount of LDH released by the cells into culture media.
Raw macrophages were pre-treated with either HDM (20 μg/mL) or FhHDM-1 P3 (20 μg/mL) for 1 h, washed and then cultured in the presence of ATP (5 mM) for 2 h. The culture supernatants were collected and assayed for LDH activity with an LDH release kit. The amount of LDH release by cells treated with ATP only was used to represent 100% cytotoxicity.
On the technique in general: Release of lactate dehydrogenase indicates damage to the cell membrane.

Setting [10] is: of 237 proteins present in both samples.

“KARDRAMAYLAKDNLGEKITEVITILLNRL (FhHDM-1 peptide 1 comprising a truncated amphipathic helix contained in FhHDM-1) [FhHDM-1 p1, peptide in which the amphipathic helix is truncated]”: the “immune cell invasion of pancreatic islets (insulitis)” value in data set [1] is listed as “no significant activity”.

B1: FhHDM-1: 90-residue polypeptide from F. hepatica, Helminth Defense Molecule-1 (SEQ ID NO:24); recombinant form minus N-terminal signal peptide, expressed in E. coli (protein, listed as Fasciola hepatica)
chain: MRFIVLLCLAEVLLAAYVEARPSEESREKLRESGRKMVKALRDAVTKAYEKARDRAMAYLAKDNLGEKITEVITILLNRLTDRLEKYAGN
Regarding B1, the “expression of Arg-1 and Ym1 in isolated peritoneal macrophages” value in [2] is “increased expression”. Besides, in [3], the “expression of markers of alternative activation (CD163 and CD206)” value is recorded as “increased expression”; the “expression of markers of the classical phenotype (CD86 and HLA-DR)” value was “decreased expression”. Besides, in data set [4], the “interaction with the plasma membrane of macrophages” value is on record as “interacts with the plasma membrane”. In addition, the “lysosomal proteins of primary macrophages” value in data set [5] is reported as “down-regulates”. Further, in data set [5] (setting [10]), the “number of proteins down-regulated following treatment” value is on record as 44 and the “number of proteins up-regulated following treatment” value was 42. In data set [5] (proteomic analysis), the “KEGG pathways in primary human macrophages (Table 5)” value is listed as “down-regulated”. Moreover, the “number of proteins uniquely expressed in the treated sample” value in [5] (versus PBS-treated sample) is recorded as 6. Besides, in data set [6] (after 18 weeks of age), the “further time the level of protection was sustained” value came to 7 weeks. This molecule gave a normoglycaemic mice in data set [6] (female NOD mice, 10 μg i.p. alternate days x6 from 4 weeks, at 18 weeks of age) of 80%. Further, the “IL-10 secreted by peritoneal macrophages” value in [7] was “significantly more”. Further, in data set [8], the “IL-12 secreted by peritoneal macrophages” value is listed as “significantly less”, the “TNFα secreted by peritoneal macrophages” value is given as “significantly less”, the “levels of IL-10 in circulation” value was “significantly reduced” and the “quantity of TNFα in sera” value is reported as “also reduced this did not reach significance”. Also, the “LDH release induced by ATP (cytotoxicity of ATP)” value in data set [9] is recorded as “no significant effect”.
